Measured values published in the supplement of paper PMC11246515.
± gives the standard deviation of the averaged measurements.

Experiment: total protein half-life in vivo (active degradation + dilution); higher = more stable protein
[1] = E. coli NCM3722 delta-clpP delta-lon delta-hslV, growth: N-lim chemostat, doubling time 6 h
[2] = E. coli NCM3722 delta-clpP, growth: N-lim chemostat, doubling time 6 h
[3] = E. coli NCM3722 delta-hslV, growth: N-lim chemostat, doubling time 6 h
[4] = E. coli NCM3722 delta-smpB, growth: N-lim chemostat, doubling time 6 h
[5] = wild type E. coli NCM3722, growth: N-lim chemostat, doubling time 6 h
[6] = wild type E. coli NCM3722, growth: N-lim chemostat, doubling time 12 h
[7] = wild type E. coli NCM3722, growth: P-lim chemostat, doubling time 6 h
[8] = wild type E. coli NCM3722, growth: P-lim chemostat, doubling time 12 h
[9] = E. coli NCM3722 delta-lon, growth: N-lim chemostat, doubling time 6 h
[10] = wild type E. coli NCM3722, growth: C-lim chemostat, doubling time 6 h
[11] = wild type E. coli NCM3722, growth: C-lim chemostat, doubling time 12 h
[12] = wild type E. coli NCM3722, growth: C-lim chemostat, doubling time 3 h

With “MQQPVVRVGEWLVTPSINQISRNGRQLTLEPRLIDLLVFFAQHSGEVLSRDELIDNVWKRSIVTNHVVTQSISELRKSLKDNDEDSPVYIATVPKRGYKLMVPVIWYSEEEGEEIMLSSPPPIPEAVPATDSPSHSLNIQNTATPPEQSPVKSKRFTTFWVWFFFLLSLGICVALVAFSSLDTRLPMSKSRILLNPRDIDINMVNKSCNSWSSPYQLSYAIGVGDLVATSLNTFSTFMVHDKINYNIDEPSSSGKTLSIAFVNQRQYRAQQCFMSIKLVDNADGSTMLDKRYVITNGNQLAIQNDLLESLSKALNQPWPQRMQETLQKILPHRGALLTNFYQAHDYLLHGDDKSLNRASELLGEIVQSSPEFTYARAEKALVDIVRHSQHPLDEKQLAALNTEIDNIVTLPELNNLSIIYQIKAVSALVKGKTDESYQAINTGIDLEMSWLNYVLLGKVYEMKGMNREAADAYLTAFNLRPGANTLYWIENGIFQTSVPYVVPYLDKFLASE” the “total protein half-life in vivo” value [1] was 5.6 ± 0.59 h, the “total protein half-life in vivo” value [2] was 5.47 ± 0.86 h and the “total protein half-life in vivo” value [3] was 5.65 ± 0.78 h. The “total protein half-life in vivo” value [4] was 5.484 ± 0.022 h, the “total protein half-life in vivo” value [5] was 5.06 ± 0.32 h and the “total protein half-life in vivo” value [6] was 12.73 ± 0.03 h. For the same sequence, the “total protein half-life in vivo” value [7] was 6.18 ± 0.23 h and the “total protein half-life in vivo” value [8] was 12.08 ± 0.11 h.
For “MSSNFRHQLLSLSLLVGIAAPWAAFAQAPISSVGSGSVEDRVTQLERISNAHSQLLTQLQQQLSDNQSDIDSLRGQIQENQYQLNQVVERQKQILLQIDSLSSGGAAAQSTSGDQSGAAASTTPTADAGTANAGAPVKSGNANTDYNAAIALVQDKSRQDDAMVAFQNFIKNYPDSTYLPNANYWLGQLNYNKGKKDDAAYYFASVVKNYPKSPKAADAMFKVGVIMQDKGDTAKAKAVYQQVISKYPGTDGAKQAQKRLNAM”, the “total protein half-life in vivo” value [1] was 5.65 ± 0.36 h, the “total protein half-life in vivo” value [3] was 5.26 ± 0.17 h and the “total protein half-life in vivo” value [9] was 5.96 ± 0.72 h. For the same sequence, the “total protein half-life in vivo” value [4] was 5.27 ± 1.5 h, the “total protein half-life in vivo” value [10] was 6.4 ± 1 h and the “total protein half-life in vivo” value [11] was 8.8 ± 1.9 h. For the same sequence, the “total protein half-life in vivo” value [5] was 5.61 ± 0.1 h, the “total protein half-life in vivo” value [6] was 11.3 ± 0.16 h and the “total protein half-life in vivo” value [7] was 5.31 ± 1.9 h. For the same sequence, the “total protein half-life in vivo” value [8] was 11.6 ± 0.52 h.
With “MASTFTSDTLPADHKAAIRQMKHALRAQLGDVQQIFNQLSDDIATRVAEINALKAQGDAVWPVLSYADIKAGHVTAEQREQIKRRGCAVIKGHFPREQALGWDQSMLDYLDRNRFDEVYKGPGDNFFGTLSASRPEIYPIYWSQAQMQARQSEEMANAQSFLNRLWTFESDGKQWFNPDVSVIYPDRIRRRPPGTTSKGLGAHTDSGALERWLLPAYQRVFANVFNGNLAQYDPWHAAHRTEVEEYTVDNTTKCSVFRTFQGWTALSDMLPGQGLLHVVPIPEAMAYVLLRPLLDDVPEDELCGVAPGRVLPVSEQWHPLLIEALTSIPKLEAGDSVWWHCDVIHSVAPVENQQGWGNVMYIPAAPMCEKNLAYAHKVKAALEKGASPGDFPREDYETNWEGRFTLADLNIHGKRALGMDV” the “total protein half-life in vivo” value [1] was 3.33 ± 0.48 h, the “total protein half-life in vivo” value [2] was 2.54 ± 0.23 h and the “total protein half-life in vivo” value [3] was 2.4687 ± 0.002 h. The “total protein half-life in vivo” value [9] was 2.95 ± 0.21 h, the “total protein half-life in vivo” value [4] was 2.62 ± 0.082 h and the “total protein half-life in vivo” value [12] was 2.7 ± 0.11 h. The “total protein half-life in vivo” value [10] was 4.34 ± 1 h, the “total protein half-life in vivo” value [11] was 3.99 ± 0.74 h and the “total protein half-life in vivo” value [5] was 2.526 ± 0.014 h. The “total protein half-life in vivo” value [6] was 3.68 ± 0.21 h, the “total protein half-life in vivo” value [7] was 4.563 ± 0.02 h and the “total protein half-life in vivo” value [8] was 7.6 ± 0.48 h.
For “MTEAMKITLSTQPADARWGEKATYSINNDGITLHLNGADDLGLIQRAARKIDGLGIKHVQLSGEGWDADRCWAFWQGYKAPKGTRKVVWPDLDDAQRQELDNRLMIIDWVRDTINAPAEELGPSQLAQRAVDLISNVAGDRVTYRITKGEDLREQGYMGLHTVGRGSERSPVLLALDYNPTGDKEAPVYACLVGKGITFDSGGYSIKQTAFMDSMKSDMGGAATVTGALAFAITRGLNKRVKLFLCCADNLISGNAFKLGDIITYRNGKKVEVMNTDAEGRLVLADGLIDASAQKPEMIIDAATLTGAAKTALGNDYHALFSFDDALAGRLLASAAQENEPFWRLPLAEFHRSQLPSNFAELNNTGSAAYPAGASTAAGFLSHFVENYQQGWLHIDCSATYRKAPVEQWSAGATGLGVRTIANLLTA”, the “total protein half-life in vivo” value [1] was 5.81 ± 0.29 h, the “total protein half-life in vivo” value [2] was 5.46 ± 0.11 h and the “total protein half-life in vivo” value [3] was 5.706 ± 0.054 h. For the same sequence, the “total protein half-life in vivo” value [9] was 5.758 ± 0.022 h, the “total protein half-life in vivo” value [4] was 5.22 ± 0.19 h and the “total protein half-life in vivo” value [12] was 3.45 ± 0.34 h. For the same sequence, the “total protein half-life in vivo” value [10] was 6.53 ± 0.15 h, the “total protein half-life in vivo” value [11] was 10.4 ± 0.37 h and the “total protein half-life in vivo” value [5] was 5.61 ± 0.15 h. The “total protein half-life in vivo” value [6] was 10.4 ± 1.1 h, the “total protein half-life in vivo” value [7] was 5.543 ± 0.044 h and the “total protein half-life in vivo” value [8] was 12.5 ± 0.4 h.
In the case of “MAGNTIGQLFRVTTFGESHGLALGCIVDGVPPGIPLTEADLQHDLDRRRPGTSRYTTQRREPDQVKILSGVFEGVTTGTSIGLLIENTDQRSQDYSAIKDVFRPGHADYTYEQKYGLRDYRGGGRSSARETAMRVAAGAIAKKYLAEKFGIEIRGCLTQMGDIPLDIKDWSQVEQNPFFCPDPDKIDALDELMRALKKEGDSIGAKVTVVASGVPAGLGEPVFDRLDADIAHALMSINAVKGVEIGDGFDVVALRGSQNRDEITKDGFQSNHAGGILGGISSGQQIIAHMALKPTSSITVPGRTINRFGEEVEMITKGRHDPCVGIRAVPIAEAMLAIVLMDHLLRQRAQNADVKTDIPRW”, the “total protein half-life in vivo” value [1] is reported as 5.73 ± 0.43 h, the “total protein half-life in vivo” value [2] is reported as 5.29 ± 0.1 h and the “total protein half-life in vivo” value [3] is reported as 5.199 ± 0.021 h. The “total protein half-life in vivo” value [4] was 4.78 ± 0.14 h, the “total protein half-life in vivo” value [12] was 3.41 ± 0.23 h and the “total protein half-life in vivo” value [10] was 5.92 ± 0.13 h. The “total protein half-life in vivo” value [11] was 12 ± 0.84 h, the “total protein half-life in vivo” value [5] was 5.09 ± 0.23 h and the “total protein half-life in vivo” value [6] was 9.61 ± 0.79 h. The “total protein half-life in vivo” value [7] was 6.51 ± 0.34 h and the “total protein half-life in vivo” value [8] was 12.6 ± 1.4 h.
In the case of “MNEQYSALRSNVSMLGKVLGETIKDALGEHILERVETIRKLSKSSRAGNDANRQELLTTLQNLSNDELLPVARAFSQFLNLANTAEQYHSISPKGEAASNPEVIARTLRKLKNQPELSEDTIKKAVESLSLELVLTAHPTEITRRTLIHKMVEVNACLKQLDNKDIADYEHNQLMRRLRQLIAQSWHTDEIRKLRPSPVDEAKWGFAVVENSLWQGVPNYLRELNEQLEENLGYKLPVEFVPVRFTSWMGGDRDGNPNVTADITRHVLLLSRWKATDLFLKDIQVLVSELSMVEATPELLALVGEEGAAEPYRYLMKNLRSRLMATQAWLEARLKGEELPKPEGLLTQNEELWEPLYACYQSLQACGMGIIANGDLLDTLRRVKCFGVPLVRIDIRQESTRHTEALGELTRYLGIGDYESWSEADKQAFLIRELNSKRPLLPRNWQPSAETREVLDTCQVIAEAPQGSIAAYVISMAKTPSDVLAVHLLLKEAGIGFAMPVAPLFETLDDLNNANDVMTQLLNIDWYRGLIQGKQMVMIGYSDSAKDAGVMAASWAQYQAQDALIKTCEKAGIELTLFHGRGGSIGRGGAPAHAALLSQPPGSLKGGLRVTEQGEMIRFKYGLPEITVSSLSLYTGAILEANLLPPPEPKESWRRIMDELSVISCDVYRGYVRENKDFVPYFRSATPEQELGKLPLGSRPAKRRPTGGVESLRAIPWIFAWTQNRLMLPAWLGAGTALQKVVEDGKQSELEAMCRDWPFFSTRLGMLEMVFAKADLWLAEYYDQRLVDKALWPLGKELRNLQEEDIKVVLAIANDSHLMADLPWIAESIQLRNIYTDPLNVLQAELLHRSRQAEKEGQEPDPRVEQALMVTIAGIAAGMRNTG”, the “total protein half-life in vivo” value [1] is reported as 5.93 ± 0.19 h, the “total protein half-life in vivo” value [2] is reported as 5.73 ± 0.32 h and the “total protein half-life in vivo” value [3] is reported as 5.54 ± 0.18 h. For the same sequence, the “total protein half-life in vivo” value [9] was 5.364 ± 0.041 h, the “total protein half-life in vivo” value [4] was 5.04 ± 0.057 h and the “total protein half-life in vivo” value [12] was 2.97 ± 0.16 h. The “total protein half-life in vivo” value [10] was 5.78 ± 0.22 h, the “total protein half-life in vivo” value [11] was 10.98 ± 0.089 h and the “total protein half-life in vivo” value [5] was 5.22 ± 0.11 h. The “total protein half-life in vivo” value [6] was 10.6 ± 0.79 h, the “total protein half-life in vivo” value [7] was 5.97 ± 0.078 h and the “total protein half-life in vivo” value [8] was 11.8 ± 0.8 h.
In the case of “MHGNSEMQKINQTSAMPEKTDVHWSGRFSVAPMLDWTDRHCRYFLRLLSRNTLLYTEMVTTGAIIHGKGDYLAYSEEEHPVALQLGGSDPAALAQCAKLAEARGYDEINLNVGCPSDRVQNGMFGACLMGNAQLVADCVKAMRDVVSIPVTVKTRIGIDDQDSYEFLCDFINTVSGKGECEMFIIHARKAWLSGLSPKENREIPPLDYPRVYQLKRDFPHLTMSINGGIKSLEEAKAHLQHMDGVMVGREAYQNPGILAAVDREIFGSSDTDADPVAVVRAMYPYIERELSQGTYLGHITRHMLGLFQGIPGARQWRRYLSENAHKAGADINVLEHALKLVADKR”, the “total protein half-life in vivo” value [1] is reported as 4.26 ± 0.35 h, the “total protein half-life in vivo” value [2] is reported as 4.49 ± 1.1 h and the “total protein half-life in vivo” value [3] is reported as 4.51 ± 0.81 h. The “total protein half-life in vivo” value [9] was 4.31 ± 0.14 h, the “total protein half-life in vivo” value [4] was 4.07 ± 0.18 h and the “total protein half-life in vivo” value [12] was 3.01 ± 0.14 h. For the same sequence, the “total protein half-life in vivo” value [10] was 5.432 ± 0.022 h, the “total protein half-life in vivo” value [11] was 9.77 ± 1.5 h and the “total protein half-life in vivo” value [5] was 4.2 ± 0.5 h. The “total protein half-life in vivo” value [6] was 6.88 ± 0.21 h, the “total protein half-life in vivo” value [7] was 6.57 ± 1.6 h and the “total protein half-life in vivo” value [8] was 10.9 ± 1.2 h.
